Experiment [1] has as its target AAV2 virion expressing GFP (AAV2-CMV-GFP) (AAV2) (UniProt P03135). Kind of experiment: cell-based or functional assay.
Experiment [2] concerns the target AAV2.5T.LSV1 virion expressing GFP (AAV2.5T.LSV1-CMV-GFP). Kind of experiment: cell-based or functional assay.

The record followed here is patent US20200338146A1.

For “pooled human IgG antibodies (Gammagard IVIG)”, the IC50 of inhibition of GFP expression in transduced 293T cells (reciprocal dilution of the pooled human IgG antibody sample at which GFP expression is reduced by 50%) (reciprocal dilution) in experiment [1] came to 104; in experiment [2], 9.3.
